Experimental data as given in patent US20180118821A1 (Eli Lilly, published 2018).
Like-named read-outs stand apart in the source and are kept apart here. Each block holds one molecule with its values, some of them ahead of it.

What was measured:
[1] = biological target: Cynomolgus monkey IL-33 (cynomolgus monkey); assay: cell-based or functional assay
Human IL-33 [2] = biological target: T1, Human IL-33 (human, UniProt O95760 95-270, limits assumed); assay: cell-based or functional assay
T1 sequence: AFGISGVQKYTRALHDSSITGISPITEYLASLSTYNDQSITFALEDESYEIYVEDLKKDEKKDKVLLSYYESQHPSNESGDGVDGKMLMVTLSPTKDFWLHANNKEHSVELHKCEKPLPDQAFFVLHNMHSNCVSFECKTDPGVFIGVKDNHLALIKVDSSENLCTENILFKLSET

Cynomolgus monkey IL-33 [3] = biological target: T2, Cynomolgus monkey IL-33 (cynomolgus monkey, UniProt A0A2K5W3I1 95-269); assay: SPR (Biacore T100/T200), antibody captured on Protein A, 37° C., 1:1 model
T2 construct: also called Cynomolgus IL-33; Cyno-IL33
T2 sequence: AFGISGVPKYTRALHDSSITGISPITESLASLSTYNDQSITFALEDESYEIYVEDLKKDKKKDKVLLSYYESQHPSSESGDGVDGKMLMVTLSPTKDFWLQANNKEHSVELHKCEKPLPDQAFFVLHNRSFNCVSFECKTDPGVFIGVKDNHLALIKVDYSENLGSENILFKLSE
Procedure: (§1) A CM4 chip containing immobilized Protein A (generated using standard NHS-EDC amine coupling) on all four flow cells (Fc) is used to employ a capture method. Antibody samples are prepared at 10 μg/mL in running buffer. Mouse, rat, and rabbit IL-33 samples are prepared at final concentrations of 1000, 500, 250, 125, 63, 31, 16, and 0 nM in running buffer. Human and Cynomologus IL-33 samples are prepared at final concentrations of 250, 125, 63, 31, 16, 8, 4, 2, 1, and 0 nM in running buffer. Each analysis cycle involves the steps of (1) capturing antibody samples on separate flow cells (Fc2, Fc3, or Fc4); (2) injecting 200 μL of IL-33 over all flow cells at 100 μL/min; (3) returning to buffer flow for a minimum of 10 min at 100 μL/min to monitor complex dissociation; (4) regenerating the chip surface with two sequential injections of 7.5 microliters of glycine, pH1.5; and (5) equilibrating the chip surface for 5 minutes prior to repeating the cycle. Each IL-33 concentration is injected in duplicate. Data is processed using standard double-referencing and fit to a 1:1 binding model using Biacore T100 Evaluation software, version 2.0.1, to determine the association rate (on-rate, kₒₙ, M⁻¹s⁻¹ units) and the dissociation rate (off-rate, koff, s⁻¹ units). The equilibrium dissociation constant (KD) is calculated from the relationship KD=koff/kₒₙ, and is in molar units. Three experimental replicates (n) are conducted for the binding of Antibody 43 to human and cynomolgus monkey IL-33.

Human IL-33 [4] = biological target: T1, Human IL-33; assay: as above
Procedure: as §1

Human IL-33 [5] = biological target: T1, Human IL-33; assay: cell-based or functional assay; remark: listed apart in the source
Cynomolgus monkey IL-33 [6] = biological target: T2, Cynomolgus monkey IL-33; assay: cell-based or functional assay
Human IL-33 [7] = biological target: T1, Human IL-33; assay: cell-based or functional assay; remark: listed apart in the source
IL-1β = IL-1β (human, UniProt P01584 117-269); assay: SPR (BIAcore 2000), antibody captured on Protein A, analyte at 500 nM
Procedure: (§2) Protein A (Calbiochem) is coupled via free amine groups to carboxyl groups on flow cells 1 and 2 of a CM5 biosensor chip (GE Healthcare) using a mixture of N-ethyl-N-(dimethylaminopropyl)-carbodiimide (EDC) and N-hydroxysuccinimide (NHS). To capture positive control antibodies, Rabbit anti-Goat IgG (Fc specific) is coupled to flow cell 3, and Rabbit anti-Rat IgG (Fc specific) is coupled to flow cell 4 (both from Jackson ImmunoResearch). Flow cells are monitored with a flow rate of 30 μL/minute using a buffer containing 0.01 M HEPES, pH 7.4, 150 mM NaCl, 0.005% surfactant P20. Antibody 43 is captured on flow cell 2 to yield a total of 300 to 800 response units (RU; results reflect flow cell 2 minus flow cell 1). Binding tests are followed by a regeneration step using glycine-HCl (pH 1.5) between each cycle. Flow cell 1 is used as a control to monitor non-specific binding of analytes tested. The exemplified antibody is tested with all analytes of the human IL-1 protein family as listed at 500 nM concentration.

IL-37 = biological target: T3, IL-37 (human, UniProt Q9NZH6 46-218, limits assumed); assay: as above
T3 sequence (looked up): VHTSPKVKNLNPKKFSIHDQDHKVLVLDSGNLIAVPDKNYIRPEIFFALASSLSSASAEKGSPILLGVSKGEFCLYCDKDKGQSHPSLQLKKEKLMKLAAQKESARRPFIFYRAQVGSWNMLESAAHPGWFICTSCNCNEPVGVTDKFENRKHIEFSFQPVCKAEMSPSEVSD
Procedure: as §2

IL-18 = biological target: T4, IL-18 (human, UniProt Q14116 37-193); assay: as above
T4 sequence (looked up): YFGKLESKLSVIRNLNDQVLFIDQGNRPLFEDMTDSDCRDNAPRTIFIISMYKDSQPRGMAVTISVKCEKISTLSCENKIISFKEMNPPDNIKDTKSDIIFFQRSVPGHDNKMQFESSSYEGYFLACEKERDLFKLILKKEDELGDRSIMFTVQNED
Procedure: as §2

IL-1RA = IL-1RA (human, UniProt P18510 26-177); assay: as above
Procedure: as §2

IL-36α = biological target: T5, IL-36α (human, UniProt Q9UHA7 6-158); assay: as above
T5 sequence (looked up): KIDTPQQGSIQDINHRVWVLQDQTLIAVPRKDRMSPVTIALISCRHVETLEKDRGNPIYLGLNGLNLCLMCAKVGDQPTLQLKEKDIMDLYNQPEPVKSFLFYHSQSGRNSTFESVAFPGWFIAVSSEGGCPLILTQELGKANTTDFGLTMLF
Procedure: as §2

IL-36γ = biological target: T6, IL-36γ (human, UniProt Q9NZH8 18-169); assay: as above
T6 sequence (looked up): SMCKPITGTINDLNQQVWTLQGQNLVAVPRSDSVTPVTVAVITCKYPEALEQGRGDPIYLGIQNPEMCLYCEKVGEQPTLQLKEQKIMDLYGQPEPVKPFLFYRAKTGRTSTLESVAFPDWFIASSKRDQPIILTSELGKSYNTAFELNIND
Procedure: as §2

IL-36RA = biological target: T7, IL-36RA (human, UniProt Q9UBH0 2-155); assay: as above
T7 sequence (looked up): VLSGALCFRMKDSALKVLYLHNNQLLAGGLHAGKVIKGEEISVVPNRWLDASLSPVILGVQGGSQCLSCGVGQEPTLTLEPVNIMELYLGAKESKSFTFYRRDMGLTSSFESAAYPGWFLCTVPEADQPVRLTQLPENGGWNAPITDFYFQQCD
Procedure: as §2

IL-36β = biological target: T8, IL-36β (human, UniProt Q9NZH7-2 5-157); assay: as above
T8 sequence (looked up): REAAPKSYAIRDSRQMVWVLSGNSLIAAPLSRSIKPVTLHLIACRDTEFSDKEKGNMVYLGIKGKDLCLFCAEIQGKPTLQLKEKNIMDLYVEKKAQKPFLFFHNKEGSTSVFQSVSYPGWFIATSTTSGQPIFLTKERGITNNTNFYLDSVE
Procedure: as §2

IL-1α = biological target: T9, IL-1α (human, UniProt P01583 113-271); assay: as above
T9 sequence (looked up): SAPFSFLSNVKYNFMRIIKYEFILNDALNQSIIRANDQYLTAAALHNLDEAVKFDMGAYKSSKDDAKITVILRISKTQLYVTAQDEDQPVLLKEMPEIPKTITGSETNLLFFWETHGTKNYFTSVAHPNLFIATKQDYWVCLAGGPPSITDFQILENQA
Procedure: as §2

Cynomolgus monkey IL-33 [8] = biological target: T2, Cynomolgus monkey IL-33; assay: SPR affinities
Procedure: as §1, with “Three experimental replicates (n) are conducted for the binding of Antibody 43 to human and cynomolgus monkey IL-33.” left out

Cynomolgus monkey IL-33 [9] = biological target: T2, Cynomolgus monkey IL-33; assay: SPR (Biacore), antibody captured on Protein A, 37° C., 1:1 model
Procedure: as §1

Human IL-33 [10] = biological target: T1, Human IL-33; assay: as above
Procedure: as §1

Sequence of IL-1RA (P18510 26-177 limits assumed): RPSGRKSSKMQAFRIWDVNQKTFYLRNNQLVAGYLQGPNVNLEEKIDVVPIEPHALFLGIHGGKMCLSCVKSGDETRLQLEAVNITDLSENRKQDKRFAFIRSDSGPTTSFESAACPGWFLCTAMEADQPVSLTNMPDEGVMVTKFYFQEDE

IC50 in the in vitro NFκB-GEC-luciferase activity assay [1]: 0.175 nM
IC50 in the in vitro NFκB-GEC-luciferase activity assay (Human IL-33 [2]): 0.426 nM
IC50 of inhibition of IL-33-induced GM-CSF secretion from human mast cells (Human IL-33 [2]): 7.6 nM
Molecule: Human monomeric ST2 (IL1RL1) (from UniProt Q01638 19-328) (receptor)

Kd (Cynomolgus monkey IL-33 [3]): 0.338 nM
koff (Cynomolgus monkey IL-33 [3]): 0.00051 s⁻¹
kon (Cynomolgus monkey IL-33 [3]): 1.5e+06 M⁻¹ s⁻¹
Kd (Human IL-33 [4]): 0.049 nM
koff (Human IL-33 [4]): 7.2e-05 s⁻¹
kon (Human IL-33 [4]): 1.5e+06 M⁻¹ s⁻¹
IC50 of inhibition of IL-33-induced GM-CSF secretion from human mast cells (Human IL-33 [5]): 0.3 nM
IC50 in the in vitro NFκB-GEC-luciferase activity assay (Cynomolgus monkey IL-33 [6]): 1.92 nM
IC50 in the in vitro NFκB-GEC-luciferase activity assay (Human IL-33 [7]): 0.33 nM
binding result (IL-1β): no binding (tested: 500 nM)
binding result (IL-37): no binding (tested: 500 nM)
binding result (IL-18): no binding (tested: 500 nM)
binding result (IL-1RA): no binding (tested: 500 nM)
binding result (IL-36α): no binding (tested: 500 nM)
binding result (IL-36γ): no binding (tested: 500 nM)
binding result (IL-36RA): no binding (tested: 500 nM)
binding result (IL-36β): no binding (tested: 500 nM)
binding result (IL-1α): no binding (tested: 500 nM)
B1: Antibody 43 (antibody, human IgG4 S228P, kappa, F234A L235A, V domains shown)
VH: EVQLVETGGGLIQPGGSLRLSCAASGFTFSFYAMSWVRQAPGKGLEWVSAISGSGGSTYYADSVKGRFTISRDNSKNTLYLQMNSLRAEDTAVYYCARTIHGIRAAYDAFIIWGQGTLVTVSS
VL: EIVLTQSPGTLSLSPGERATLSCRASQSVGINLSWYQQKPGQAPRLLIYGASHRLTGIPDRFSGSGSGTDFTLTISRLEPEDFAVYYCHQYSQPPPFTFGGGTKVEIKR
notes: Derived from Antibody 54 by engineering to reduce potential immunogenicity; expressed in CHO cells; also called Ab 43; Exemplified Antibody

fold difference in species cross-reactivity (affinity to cynomolgus IL-33 against human IL-33) (Cynomolgus monkey IL-33 [8]): ~850 fold
IC50 in the in vitro NFκB-GEC-luciferase activity assay (Human IL-33 [7]): 0.286 nM
Kd (Cynomolgus monkey IL-33 [9]): 12.4 nM
koff (Cynomolgus monkey IL-33 [9]): 0.019 s⁻¹
kon (Cynomolgus monkey IL-33 [9]): 1.7e+06 M⁻¹ s⁻¹
Kd (Human IL-33 [10]): 0.0145 nM
koff (Human IL-33 [10]): 2.6e-05 s⁻¹
kon (Human IL-33 [10]): 1.7e+06 M⁻¹ s⁻¹
B2: Antibody 75 (antibody, human IgG4 S228P, kappa, F234A L235A, V domains shown)
VH: EVQLVETGGGLIQPGGSLRLSCAASGFTFSSYAMSWVRQAPGKGLEWVSAISGSGGSTYYADSVKGRFTISRDNSKNTLYLQMNSLRAEDTAVYYCARTLHGIRAAYDAFIIWGQGTLVTVSS
VL: EIVLTQSPGTLSLSPGERATLSCRASQSVGINLSWYQQKPGQAPRLLIYGASHRATGIPDRFSGSGSGTDFTLTISRLEPEDFAVYYCHQYSQSPPFTFGGGTKVEIKR
notes: Human IgG4 antibody; 3-53 heavy chain framework and A27 light chain framework with the CDRs of Antibody 23; also called Ab 75
